In experiment [1] the target is T1, purified recombinant drDnaB (Deinococcus radiodurans R1, UniProt Q9RWW6 1-448).
T1 sequence (looked up): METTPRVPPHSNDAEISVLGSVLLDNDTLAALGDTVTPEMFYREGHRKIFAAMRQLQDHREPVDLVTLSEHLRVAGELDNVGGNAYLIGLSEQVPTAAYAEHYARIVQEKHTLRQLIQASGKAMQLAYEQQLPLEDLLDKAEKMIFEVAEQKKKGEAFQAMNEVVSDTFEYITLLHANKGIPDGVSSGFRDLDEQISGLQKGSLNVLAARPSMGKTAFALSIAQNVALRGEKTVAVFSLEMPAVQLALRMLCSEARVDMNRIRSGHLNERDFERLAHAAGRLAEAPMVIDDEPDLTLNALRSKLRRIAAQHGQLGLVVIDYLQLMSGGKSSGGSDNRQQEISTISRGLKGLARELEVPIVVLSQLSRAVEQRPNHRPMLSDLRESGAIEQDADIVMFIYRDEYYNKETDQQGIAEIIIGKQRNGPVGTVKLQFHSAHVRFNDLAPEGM
The experiment can be described thus: SPR.

Experiment [2] addresses T2, purified recombinant drDnaA (Deinococcus radiodurans R1, UniProt Q9RYE7 1-466).
T2 sequence (looked up): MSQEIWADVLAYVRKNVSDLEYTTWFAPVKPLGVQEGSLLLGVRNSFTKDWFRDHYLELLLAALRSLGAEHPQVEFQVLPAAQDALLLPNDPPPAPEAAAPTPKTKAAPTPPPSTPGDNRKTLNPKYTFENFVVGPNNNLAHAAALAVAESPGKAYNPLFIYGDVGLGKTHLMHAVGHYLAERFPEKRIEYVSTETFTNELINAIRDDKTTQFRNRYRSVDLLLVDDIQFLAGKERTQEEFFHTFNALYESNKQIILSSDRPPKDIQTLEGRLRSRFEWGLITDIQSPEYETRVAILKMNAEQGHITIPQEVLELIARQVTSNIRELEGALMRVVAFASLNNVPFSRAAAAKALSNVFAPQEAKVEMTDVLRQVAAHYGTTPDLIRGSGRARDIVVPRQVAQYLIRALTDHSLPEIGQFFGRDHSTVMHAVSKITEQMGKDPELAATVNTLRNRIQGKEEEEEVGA
The experiment can be described thus: SPR.

B1: recombinant PprA (natural protein, Deinococcus radiodurans, UniProt O32504 1-300, looked up)
chain: MLPLAFLICSGHNKGSMARAKAKDQTDGIYAAFDTLMSTAGVDSQIAALAASEADAGTLDAALTQSLQEAQGRWGLGLHHLRHEARLTDDGDIEILTDGRPSARVSEGFGALAQAYAPMQALDERGLSQWAALGEGYRAPGDLPLAQLKVLIEHARDFETDWSAGRGETFQRVWRKGDTLFVEVARPASAEAALSDAAWDVIASIKDRAFQRELMRRSEKDGMLGALLGARHAGAKANLAQLPEAHFTVQAFVQTLSGAAARNAEEYRAALKTAAAALEEYQGVTTRQLSEVLRHGLRES
In the case of B1, the results for the Kd in experiment [1] and in experiment [2] were 971 nM and 541 nM, respectively.

These data come from paper doi:10.1101/2020.03.25.007906 (bioRxiv, 2020).
